How the values were obtained:
[1] = molecular target: T1, Aux2LS20-His6 (p57) (Bacillus subtilis plasmid pLS20cat) (UniProt E9RJ22); experiment: EMSA; conditions: EMSA: 20 mM Tris-HCl pH 8, 1 mM EDTA, 5 mM MgCl2, 0.5 mM DTT, 100 mM KCl, 10% glycerol, 0.05 mg/ml BSA; 20 min 30°C then 10 min on ice; 2% agarose, 0.5x TBE …
T1 sequence: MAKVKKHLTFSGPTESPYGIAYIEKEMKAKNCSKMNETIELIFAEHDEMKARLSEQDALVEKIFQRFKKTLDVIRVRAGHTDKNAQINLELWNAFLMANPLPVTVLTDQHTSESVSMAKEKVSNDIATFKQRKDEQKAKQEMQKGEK

[2] = tested on: T2, Aux1LS20-His6 (p56) (Bacillus subtilis plasmid pLS20cat), ORF:1a040432; experiment: EMSA; conditions: EMSA: 20 mM Tris-HCl pH 8, 1 mM EDTA, 5 mM MgCl2, 0.5 mM DTT, 100 mM KCl, 10% glycerol, 0.05 mg/ml BSA; 20 min 30°C then 10 min on ice; 2% agarose, 0.5x TBE …
T2 sequence: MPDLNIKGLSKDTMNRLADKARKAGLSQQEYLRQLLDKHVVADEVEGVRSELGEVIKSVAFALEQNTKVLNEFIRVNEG

[3] = molecular target: Aux1_(LS20) with a C-terminal His(6) tag (Bacillus subtilis (plasmid pLS20cat)); experiment: AUC + other: dynamic light scattering; sedimentation velocity of the purified protein alone at 12 uM; diffusion coefficient from DLS combined with the S-value in the Svedberg equation; conditions as in Ramachandran et al., 2017
[4] = molecular target: Aux1_(LS20) with a C-terminal His(6) tag (Bacillus subtilis (plasmid pLS20cat)); experiment: AUC; sedimentation equilibrium of the purified protein alone at 12 uM, best fit to a single species model; conditions as in Ramachandran et al., 2017
[5] = molecular target: Aux2_(LS20) with a C-terminal His(6) tag (Bacillus subtilis (plasmid pLS20cat)); experiment: AUC + other: dynamic light scattering; sedimentation velocity of the purified protein alone at 12 uM; diffusion coefficient from DLS combined with the S-value in the Svedberg equation; conditions as in Ramachandran et al., 2017
[6] = molecular target: Aux2_(LS20) with a C-terminal His(6) tag (Bacillus subtilis (plasmid pLS20cat)); experiment: AUC; sedimentation equilibrium of the purified protein alone at 12 uM, best fit to a single species model; conditions as in Ramachandran et al., 2017

| Substance | binding [1] | binding [2] | other results |
| --- | --- | --- | --- |
| TGAGAAAGTCCTGCCTTCCTCGCTTTATCCGCAAGCCTATTCATTGTATCTTTTGAAAGACCTTTGATGTTGAGATCCGGCATTTGTTAACGCTCCTTTTCATCGATTTCTGCACATTACTTTGCAACGATCTGTTCAAATAAGTGTTTCTTTTTCCAAGGCTTTTTGCGGCAGCAAAAAGCCGGCCCCCGATTCCGAAGG (double strand) [F33] | no binding |  |  |
| CGAAGACTAAATTTCTGTATGGAAAACAGTTATTTTTCGTGTGCATAAAATAAAGATTTATGTGCATTTAGTTCTAAATCACCTAAATAATGGTTGAACATAAATGTTTTTTTTATGTGCATTCAGCAATAAATCTGGTACCACGAAAAAACAAACCGCACTGCGGTTTCACCATGCAAATGGTGCCAGTTTCCCCTTAT (double strand) [F24] | binds | binds |  |
| ATGGTGAAACCGCAGTGCGGTTTGTTTTTTCGTGGTACCAGATTTATTGCTGAATGCACATAAAAAAAACATTTATGTTCAACCATTATTTAGGTGATTTAGAACTAAATGCACATAAATCTTTATTTTATGCACACGAAAAATAACTGTTTTCCATACAGAAATTTAGTCTTCGATGACGAGATTGCTCTTTCTTTTCT (double strand) [F23] | binds | binds |  |
| ACGAGCAAAGAAATGCTAGGTGAACTTGAAAAACGGAATGAATTATTGAAGAAAAGAAAGAGCAATCTCGTCATCGAAGACTAAATTTCTGTATGGAAAACAGTTATTTTTCGTGTGCATAAAATAAAGATTTATGTGCATTTAGTTCTAAATCACCTAAATAATGGTTGAACATAAATGTTTTTTTTATGTGCATTCAGC (double strand) [F21] | binds |  |  |
| Aux1_(LS20) with a C-terminal His(6) tag (natural protein) |  |  | stoichiometry N [3]: 4; stoichiometry N [4]: 4 |
| GCTCTTTCCTTTTCCACCCCCTCCTTCCTTCGGAATCGGGGGCCGGCTTTTTGCTGCCGCAAAAAGCCTTGGAAAAAGAAACACTTATTTGAACAGATCGTTGCAAAGTAATGTGCAGAAATCGATGAAAAGGAGCGTTAACAAATGCCGGATCTCAACATCAAAGGTCTTTCAAAAGATACAATGAATAGGCTTGCGGA (double strand) [F32] | no binding |  |  |
| TAAATGTTTTTTTTATGTGCATTCAGCAATAAATCTGGTACCACGAAAAAACAAACCGCACTGCGGTTTCACCATGCAAATGGTGCCAGTTTCCCCTTATGCTCTTTCCTTTTCCACCCCCTCCTTCCTTCGGAATCGGGGGCCGGCTTTTTGCTGCCGCAAAAAGCCTTGGAAAAAGAAACACTTATTTGAACAGATCG (double strand) [F28] | binds more weakly | binds |  |
| CAGTTATTTTTCGTGTGCATAAAATAAAGATTTATGTGCATTTAGTTCTAAATCACCTAAATAATGGTTGAACATAAATGTTTTTTTTATGTGCATTCAGCAATAAATCTGGTACCACGAAAAAACAAACCGCACTGCGGTTTCACCATGCAAATGGTGCCAGTTTCCCCTTATGCTCTTTCCTTTTCCACCCCCTCCTTC (double strand) [F25] | binds | binds |  |
| GCAAATGGTGCCAGTTTCCCCTTATGCTCTTTCCTTTTCCACCCCCTCCTTCCTTCGGAATCGGGGGCCGGCTTTTTGCTGCCGCAAAAAGCCTTGGAAAAAGAAACACTTATTTGAACAGATCGTTGCAAAGTAATGTGCAGAAATCGATGAAAAGGAGCGTTAACAAATGCCGGATCTCAACATCAAAGGTCTTTCAA (double strand) [F31] | no binding |  |  |
| TTTTTCGTGGTACCAGATTTATTGCTGAATGCACATAAAAAAAACATTTATGTTCAACCATTATTTAGGTGATTTAGAACTAAATGCACATAAATCTTTATTTTATGCACACGAAAAATAACTGTTTTCCATACAGAAATTTAGTCTTCGATGACGAGATTGCTCTTTCTTTTCTTCAATAATTCATTCCGTTTTTCAAG (double strand) [F22] | binds | binds |  |
| TAAAGATTTATGTGCATTTAGTTCTAAATCACCTAAATAATGGTTGAACATAAATGTTTTTTTTATGTGCATTCAGCAATAAATCTGGTACCACGAAAAAACAAACCGCACTGCGGTTTCACCATGCAAATGGTGCCAGTTTCCCCTTATGCTCTTTCCTTTTCCACCCCCTCCTTCCTTCGGAATCGGGGGCCGGCTTT (double strand) [F26] | binds more weakly | binds |  |
| CGGCATTTGTTAACGCTCCTTTTCATCGATTTCTGCACATTACTTTGCAACGATCTGTTCAAATAAGTGTTTCTTTTTCCAAGGCTTTTTGCGGCAGCAAAAAGCCGGCCCCCGATTCCGAAGGAAGGAGGGGGTGGAAAAGGAAAGAGCATAAGGGGAAACTGGCACCATTTGCATGGTGAAACCGCAGTGCGGTTTGT (double strand) [F30] | no binding |  |  |
| CATCGATTTCTGCACATTACTTTGCAACGATCTGTTCAAATAAGTGTTTCTTTTTCCAAGGCTTTTTGCGGCAGCAAAAAGCCGGCCCCCGATTCCGAAGGAAGGAGGGGGTGGAAAAGGAAAGAGCATAAGGGGAAACTGGCACCATTTGCATGGTGAAACCGCAGTGCGGTTTGTTTTTTCGTGGTACCAGATTTATTG (double strand) [F29] | no binding | binds |  |
| Aux2_(LS20) with a C-terminal His(6) tag (natural protein) |  |  | stoichiometry N [5]: 6; stoichiometry N [6]: 6 |
| AAATCACCTAAATAATGGTTGAACATAAATGTTTTTTTTATGTGCATTCAGCAATAAATCTGGTACCACGAAAAAACAAACCGCACTGCGGTTTCACCATGCAAATGGTGCCAGTTTCCCCTTATGCTCTTTCCTTTTCCACCCCCTCCTTCCTTCGGAATCGGGGGCCGGCTTTTTGCTGCCGCAAAAAGCCTTGGAAA (double strand) [F27] | binds more weakly | binds |  |
